Assay results taken from publication PMC4811774.

Experiments:
[1] = target: Toc75 POTRA-His (protein fragment encompassing all three Toc75 POTRA domains and a C-terminal hexahistidine tag) (Arabidopsis thaliana) (UniProt Q9STE8); experiment: pull-down; solid phase binding: increasing amounts of POTRA-His immobilised on Ni-NTA resin, incubated with in vitro translated 35S-labelled proteins in HMK buffer (50 mM Hepes-KOH pH 7.5, 2 mM MgCl2, 40 mM KOAc) with 10 mM imidazole and 0.1% Triton X-100, 30 min, 23°C; phosphorimaging
[2] = target: TOC translocons in TOC75ΔP1-2#2 chloroplasts (Arabidopsis thaliana | Arabidopsis thaliana (endogenous in chloroplasts)) (UniProt Q9STE8); experiment: other; apparent Kd, isolated chloroplasts, 0.1 mM ATP and GTP; conditions: natural protein
[3] = target: TOC translocons in TOC75ΔP1#2 chloroplasts (Arabidopsis thaliana | Arabidopsis thaliana (endogenous in chloroplasts)) (UniProt Q9STE8); experiment: saturation binding to isolated chloroplasts; apparent; increasing amounts of urea-denatured preSSU-FLAG-HIS with 10^7 isolated chloroplasts, 0.1 mM ATP and GTP, 26°C, 5 min (early import intermediate); chloroplasts reisolated through Percoll, anti-FLAG immunoblot, non-linear regression
[4] = target: TOC translocons in TOC75 chloroplasts (Arabidopsis thaliana | Arabidopsis thaliana (endogenous in chloroplasts)) (UniProt Q9STE8); experiment: as above

Substance: [35S]preSSU (from UniProt P10795 1-180) (natural protein)
- maximum binding, percent of added radiolabeled protein [1]: 77%

Substance: preSSU-FLAG-HIS (from UniProt P10795 55-180)
- Kd [2]: 126 nM

Substance: preSSU-FLAG-HIS (from UniProt P10795 55-180) (natural protein)
- Kd [3]: 188 nM
- Kd [4]: 159 nM
